Data taken from patent US20090286314A1 (Innovent, published 2009).
Where a chain is given by its changes, count along the chain named.

B1: double mutant of R-5 (Mut B) (other)
chain: MSLPATHDLHISGSINGHEFDLEGSGKGNAKEGYQELHLKSNKGDLSFSPWILVPNIGYGFYQYLPFPDGAMSPYQAAMHDGSGYVMHRSMQFEDGAMLHSDHRYIYKGNHIKGEFRLKGSGFPADGPVMTNSLTAADWCVDKLLYPNDNTIIGKFDWTYTTTSGKRYQSDVQTTVTFGKPIAADILKKQPMFVFRKVELKHTKTELNFKQWQKAFQDIA
notes: Expressed in E. coli and purified; Eluted as a dimer; also called dimeric mutant
B2: triple mutant of R-5 (Mut C) (other)
chain: B1 chain with D157K
notes: Expressed in E. coli and purified; Eluted as a monomer; also called R-5C; monomeric mutant

Tests used:
[1] = target: the molecule itself; assay: gel chromatography, HiPrep Sephacryl S-200, high protein concentrations (self-association)
Text: (§1) The wild-type fluorescent proteins have a tendency to self-aggregate and form tetramers. Among the limited number of new FPs that we so far have analyzed, no monomeric variant has been observed, but the tendency to self-aggregate appears to vary among individual variants. In order to generate a pure monomeric variant, which would be advantageous for certain applications, the protein R-5 (SEQ ID NO: 79) was subjected to limited mutagenesis after extensive 3-D modelling. Three amino acid residues were chosen as suitable candidates for mutagenesis, and three mutants with single, double and triple mutations were constructed and custom made by an external laboratory. After expression in E. coli and purification their aggregation state were analyzed by gel-chromatography on a HiPrep Sephacryl S-200 column. The conditions used (i.e. high protein concentrations) were chosen to promote aggregation, and EGFP, which is a weak forming dimer, did elute as a peak with an apparent molecular weight of ˜60 kDa, i.e. as a dimer.

[2] = target: the molecule itself; assay: gel chromatography, HiPrep Sephacryl S-200, high protein concentrations chosen to promote aggregation (self-association)
Text: as §1

Row | Protein | binding result [1] | binding result [2]
1 | B1 | binds | –
2 | B2 | – | no binding
